Data taken from PMC7619190, “Pervanadate-induced oxidation relieves autoinhibition of SRC protein tyrosine kinase” (Science signaling, 2026).
Where no end group is shown, it is not given here. [ ]: non-standard residue; d: D form. pY = N[C@@H](Cc1ccc(OP(=O)(O)O)cc1)C(=O)O

B1: optimized SRC binding phosphopeptide (EPQpYEEIP) (peptide)
peptide: EPQ[pY]EEIP
notes: source: synthetic peptide, bought: Biosynth (95% purity)
B2: peroxiredoxin 1 (PRDX1) (natural protein, human (endogenous in HEK293T), UniProt Q06830 1-199, looked up)
chain: MSSGNAKIGHPAPNFKATAVMPDGQFKDISLSDYKGKYVVFFFYPLDFTFVCPTEIIAFSDRAEEFKKLNCQVIGASVDSHFCHLAWVNTPKKQGGLGPMNIPLVSDPKRTIAQDYGVLKADEGISFRGLFIIDDKGILRQITVNDLPVGRSVDETLRLVQAFQFTDKHGEVCPAGWKPGSDTIKPDVQKSKEYFSKQK
notes: peroxiredoxin 1, endogenous in HEK293T cells; Disulfide-linked dimer seen on non-reducing gels; source: endogenous, HEK293T lysate

How the values were obtained:
[1] = biological target: T1, human SRC SH2 domain (Gln147-Lys252), wild type (human, UniProt P12931-1 147-252); assay: ITC; peptide (400 uM) titrated into SRC SH2 (40 uM) in the cell, 25 C, MicroCal PEAQ-ITC Automated; SH2 domain pretreated with 1 mM TCEP (reducing conditions); settings: both partners purified
T1 construct: SRC SH2 domain, human, residues Gln147-Lys252, cloned in pETM11; numbering on UniProt P12931-1; Used after pretreatment with 1 mM TCEP (reduced) or 0.1 mM pervanadate (cysteines oxidised; which residues were oxidised in this sample was not determined); The two states are told apart by the assay (a1, a2); also called SH2^WT; SRC SH2^WT

[2] = biological target: the molecule itself; assay: non-reducing SDS-PAGE and immunoblot; HEK293T cells, PV time course, washed with PBS with catalase and NEM, lysed in 2% SDS with NEM; disulfide-linked dimer as slower migrating species

| Binder | binding result [1] | stoichiometry N [2] |
| --- | --- | --- |
| B1 | binds |  |
| B2 |  | 2 |
